Measurements reported in paper PMC3822002 (Chembiochem : a European journal of chemical biology, 2013).

Columns and labels:
[1] = biological target: Nedd8 activating enzyme (NAE), heterodimer of APPBP1 and Uba3 (UniProt Q13564)
CRL substrates = conditions: ref [31]–[32]; cited from earlier work
tumor growth = conditions: ref [31]–[32]; cited from earlier work
NAE = biological target: T1, NAE (Homo sapiens, UniProt Q13564+Q8TBC4); conditions: covalent adduct with the C-terminus of Nedd8; ref [16], [30]; cited from earlier work
T1 sequence (Q8TBC4 1-463): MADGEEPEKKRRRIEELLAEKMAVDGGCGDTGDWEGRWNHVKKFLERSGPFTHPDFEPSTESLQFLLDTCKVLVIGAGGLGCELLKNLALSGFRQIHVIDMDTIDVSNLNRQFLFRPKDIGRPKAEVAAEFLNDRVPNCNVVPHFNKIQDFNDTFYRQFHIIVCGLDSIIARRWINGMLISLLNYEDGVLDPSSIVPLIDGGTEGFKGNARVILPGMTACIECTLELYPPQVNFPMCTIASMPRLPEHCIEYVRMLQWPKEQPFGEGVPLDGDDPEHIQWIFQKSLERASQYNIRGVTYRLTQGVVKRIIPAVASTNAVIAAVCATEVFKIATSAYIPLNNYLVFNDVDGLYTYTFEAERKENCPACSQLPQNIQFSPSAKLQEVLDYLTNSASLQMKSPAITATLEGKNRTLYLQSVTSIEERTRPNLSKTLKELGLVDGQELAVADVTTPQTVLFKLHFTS
T1 sequence (Q13564 1-534): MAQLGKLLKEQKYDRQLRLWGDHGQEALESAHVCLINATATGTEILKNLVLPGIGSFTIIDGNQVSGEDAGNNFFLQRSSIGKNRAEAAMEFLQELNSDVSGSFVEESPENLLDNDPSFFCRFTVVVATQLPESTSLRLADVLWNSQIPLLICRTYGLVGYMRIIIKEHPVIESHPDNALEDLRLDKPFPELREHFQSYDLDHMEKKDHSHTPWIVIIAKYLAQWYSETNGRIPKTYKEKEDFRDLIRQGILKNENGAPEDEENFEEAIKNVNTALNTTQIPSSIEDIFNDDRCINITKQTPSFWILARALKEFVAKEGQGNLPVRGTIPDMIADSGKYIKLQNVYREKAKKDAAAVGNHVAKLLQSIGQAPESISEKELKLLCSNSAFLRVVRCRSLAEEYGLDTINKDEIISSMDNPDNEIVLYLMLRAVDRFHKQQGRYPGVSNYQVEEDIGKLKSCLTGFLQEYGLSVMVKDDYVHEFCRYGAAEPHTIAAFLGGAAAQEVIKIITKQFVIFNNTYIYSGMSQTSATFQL

K1/2 of the ATP-PPi exchange reaction catalysed by NAE, saturating ATP [1] | Molecule | effect on ubiquitination and degradation of CRL substrates (CRL substrates) | effect on tumor growth (tumor growth) | NAE inhibition (NAE)
0.45 µM | Nedd8 variant ND20 (71ILTFGG76), N-terminal GST fusion (from UniProt Q15843 1-76) | – | – | –
150 µM | Nedd8 variant ND1 (71LQWFGG76), N-terminal GST fusion (from UniProt Q15843 1-76) | – | – | –

Further lines, the molecule ahead of its results:

Molecule | K1/2 of the ATP-PPi exchange reaction catalysed by NAE, saturating ATP [1] | effect on ubiquitination and degradation of CRL substrates (CRL substrates) | effect on tumor growth (tumor growth) | NAE inhibition (NAE)
NS(=O)(=O)OC[C@@H]1C[C@@H](n2ccc3c(N[C@H]4CCc5ccccc54)ncnc32)C[C@@H]1O [MLN4924] | – | block ubiquitination and degradation of CRL substrates | inhibit tumor growth | potent inhibitor of NAE
wt Nedd8 (71LALRGG76), N-terminal GST fusion (from UniProt Q15843 1-76) (natural protein) | 1.3 µM | – | – | –
Nedd8 variant ND4 (71RLWFGG76), N-terminal GST fusion (from UniProt Q15843 1-76) | 4.5 µM | – | – | –
